Measurements: PMC3223204, “Implantation Serine Proteinase 1 Exhibits Mixed Substrate Specificity that Silences Signaling via Proteinase-Activated Receptors” (PLoS ONE, 2011)

How the values were obtained:
human PAR4 = molecular target: T1, human PAR4 (Homo sapiens, UniProt Q96RI0, INS25FLNCCPGCCMEP); experiment: Release of N-terminal BAB motif from PAR4 on COS-1 cells; type: cell-based; settings: 0.1 and 0.5 units per ml, 37°C, 30 minutes
T1 construct: expressed in transfected cells; host or cells: COS-1
T1 sequence (Q96RI0 with tags, fused parts or gaps): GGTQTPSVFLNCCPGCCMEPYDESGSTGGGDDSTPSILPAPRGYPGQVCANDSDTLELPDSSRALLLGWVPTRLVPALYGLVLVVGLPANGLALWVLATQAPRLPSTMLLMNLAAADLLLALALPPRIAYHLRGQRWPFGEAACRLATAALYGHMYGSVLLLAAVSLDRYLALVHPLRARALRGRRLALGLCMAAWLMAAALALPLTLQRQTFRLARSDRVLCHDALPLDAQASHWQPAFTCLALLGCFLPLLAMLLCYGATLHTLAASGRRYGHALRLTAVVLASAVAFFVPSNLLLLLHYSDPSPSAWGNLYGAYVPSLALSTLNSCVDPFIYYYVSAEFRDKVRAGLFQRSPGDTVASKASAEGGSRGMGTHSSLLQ
Source text: (§1) The biarsenical fluorochrome binding domain (BAB), containing a tetra-cysteine motif, […] for PAR1, […] for PAR2 and […] for PAR4 was inserted into the receptor N-terminal domains by introducing corresponding oligonucleotides just downstream of the signal peptide of PARs, after A26 for human PAR1, Q27 for human PAR2 and V25 for human PAR4. The PAR DNA constructs containing the N-terminal BAB domain and a YFP C-terminal fluorochrome tag were cloned in pCDNA3.1+ at the restriction enzyme sites between Eco RI and Xba I. COS-1 cells obtained from ATCC (Manassas, VA USA) were transected with the PAR constructs with the FuGENE6 transfection reagent (Roche Applied Bioscience). The expression level of the expressed receptor was quantified using a fluorescence plate reader, (Victor 4X, Perkin-Elmer), and confocal microscopy was used to monitor the receptor location by visualizing the receptor YFP tag. […] Then, the peptide(s) containing the receptor BAB tetracysteine motif released by proteinases from the receptor N-terminus into the cell culture supernatant was quantified using a Victor X4 fluorescent plate reader with an excitation wavelength of 540 nm and an emission wavelength monitored at 615 nm. […]

trypsin = molecular target: T2, trypsin (Sus scrofa, UniProt P00761); experiment: Effect of ISP1 on enzyme activity of trypsin; type: biochemical; settings: data not shown
T2 construct: Porcine trypsin (cat. number T-3030; 14,500 units/mg); purchased Sigma-Aldrich T-3030 (printed as T0303); host or cells: porcine pancreas

human PAR2 = molecular target: T3, human PAR2 (Homo sapiens, UniProt P55085); experiment: Release of N-terminal BAB motif from PAR2 on COS-1 cells; type: cell-based; settings: 0.1 and 0.5 units per ml, 37°C, 30 minutes
T3 construct: expressed in transfected cells; host or cells: COS-1
T3 sequence (P55085 with tags, fused parts or gaps limits assumed): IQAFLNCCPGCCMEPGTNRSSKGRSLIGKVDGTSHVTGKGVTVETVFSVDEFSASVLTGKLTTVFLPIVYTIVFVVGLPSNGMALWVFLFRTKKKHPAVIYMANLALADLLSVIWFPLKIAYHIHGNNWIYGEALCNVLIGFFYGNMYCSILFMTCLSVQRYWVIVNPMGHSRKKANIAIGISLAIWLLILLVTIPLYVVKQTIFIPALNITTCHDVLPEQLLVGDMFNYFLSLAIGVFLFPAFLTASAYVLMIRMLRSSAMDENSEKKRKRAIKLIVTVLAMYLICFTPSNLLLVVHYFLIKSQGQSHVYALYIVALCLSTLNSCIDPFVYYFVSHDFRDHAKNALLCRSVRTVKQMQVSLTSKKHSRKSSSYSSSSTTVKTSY
Source text: as §1

thrombin = molecular target: T4, thrombin (Homo sapiens, UniProt P00734); experiment: Effect of ISP1 on enzyme activity of thrombin; type: biochemical; settings: data not shown
T4 construct: High activity human thrombin (cat. number 605195, lot B37722; 3,186 NIH units/mg) was from Calbiochem; purchased Calbiochem 605195

T2 sequence (P00761 9-231): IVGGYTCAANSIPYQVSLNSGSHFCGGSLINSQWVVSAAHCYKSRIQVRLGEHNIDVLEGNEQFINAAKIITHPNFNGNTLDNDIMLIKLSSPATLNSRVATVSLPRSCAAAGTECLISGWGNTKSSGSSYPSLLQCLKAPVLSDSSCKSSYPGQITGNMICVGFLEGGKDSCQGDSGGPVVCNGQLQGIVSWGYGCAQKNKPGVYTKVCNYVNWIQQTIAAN

B1: ISP1: recombinant implantation serine proteinase 1 expressed in Pichia pastoris, also known as Mouse Prss28 (protein, UniProt Q924N9 27-274, looked up)
Serine protease 28: KPVGIVGGQRTPPGKWPWQVSLRMYSYEVNSWVHICGGSIIHPQWILTAAHCIQSQDADPAVYRVQVGEVYLYKEQELLNISRIIIHPDYNDVSKRFDLALMQLTALLVTSTNVSPVSLPKDSSTFDSTDQCWLVGWGNLLQRVPLQPPYQLHEVKIPIQDNKSCKRAYRKKSSDEHKAVAIFDDMLCAGTSGRGPCFGDSGGPLVCWKSNKWIQVGVVSKGIDCSNNLPSIFSRVQSSLAWIHQHIQ
modifications: recombinant, Pichia pastoris-expressed
notes: recombinant implantation serine proteinase 1 expressed in Pichia pastoris, also known as Mouse Prss28
Q: Which results are given for B1?
A: Release of PAR4 N-terminal BAB domain (PAR cleavage activity) (human PAR4): significant concentration-dependent PAR cleavage activity; Inhibitory effect on enzyme activity of trypsin (trypsin): doesn't have any inhibitory effect; Release of PAR2 N-terminal BAB domain (PAR cleavage activity) (human PAR2): significant concentration-dependent PAR cleavage activity; Inhibitory effect on enzyme activity of thrombin (thrombin): doesn't have any inhibitory effect
